Experiment [1] concerns the target T1, human claudin 18 splice variant 2 (CLDN18.2) (human).
T1 construct: also called claudin 18 isotype 2
The experiment is described as follows: flow cytometry (Table 6); APC-conjugated secondary antibody; binding assay 1. For orientation: In flow cytometry, cells or beads pass a laser one at a time.
Experimental: (§1) 100 μl of the cell suspension per well (correspond to 2×10⁵ cells/well) were transferred to a round bottom 96-well microtiter plate. […] The cells were centrifuged for 1 min at 1500 rpm and the supernatant was discarded. […] After incubation, 100 μl FACS buffer were added to each sample, the cells were centrifuged for 1 min at 1500 rpm and the supernatant was discarded. The washing step with FACS buffer was repeated twice. Finally, the cells were resuspended in 100 μl FACS buffer and binding was determined using a BD FACS Array Bioanalyzer.
Antibodies marked with the same number (1 or 2) were tested in the same binding assay.

In experiment [2] the target is T1, human claudin 18 splice variant 2 …. The experiment is described as follows: flow cytometry (Table 6); APC-conjugated secondary antibody; binding assay 1; normalized to IMAB362.
Experimental: as §1
The target in experiment [3] is human claudin 18 splice variant 1 (CLDN18.1) (human, UniProt P56856 1-261). The experiment is described as follows: flow cytometry, HEK293 cells stably expressing CLDN18.1 (column 'CLDN18.1 reactive').
Experiment [4] addresses T1, human claudin 18 splice variant 2 …. The experiment is described as follows: flow cytometry, HEK293 cells stably expressing CLDN18.2; APC-conjugated secondary antibody; binding assay 3.
Experimental: as §1
For experiment [5] the target is unchanged. The experiment is described as follows: flow cytometry, HEK293 cells stably expressing CLDN18.2; APC-conjugated secondary antibody; binding assay 3; normalized to IMAB362.
Experimental: as §1
Experiment [6] shares this target. The experiment is described as follows: cell-based or functional assay.
For experiment [7] the target is unchanged. The experiment is described as follows: flow cytometry (Table 6); ProteinL-FITC detection.
Experimental: as §1
Experiment [8] has the same target. The experiment is described as follows: flow cytometry (Table 6); ProteinL-FITC detection; normalized to IMAB362.
Experimental: as §1
For experiment [9] the target is unchanged. The experiment is described as follows: flow cytometry, HEK293 cells stably expressing CLDN18.2; ProteinL-FITC detection; binding assay 4.
Experiment [10] shares this target. The experiment is described as follows: flow cytometry, HEK293 cells stably expressing CLDN18.2; ProteinL-FITC detection; binding assay 4; normalized to IMAB362.
Experimental: as §1
Experiment [11] has the same target. The experiment is described as follows: cell-based or functional assay. This is another data set of the same source.
Experiment [12] has the same target. The experiment is described as follows: cell-based or functional assay. The source holds these as a separate data set.
Experiment [13] shares this target. The experiment is described as follows: cell-based or functional assay. The source holds these as a separate data set.
The target is the same in experiment [14]. The experiment is described as follows: flow cytometry on BxPC-3~CLDN18.2 cells, second assay.
Experiment [15] has the same target. The experiment is described as follows: flow cytometry on BxPC-3~CLDN18.2 cells, antibody up to 20 µg/ml.
Experimental: as §1
For experiment [16] the target is unchanged. The experiment is described as follows: flow cytometry on HEK293~CLDN18.2 cells, antibody up to 20 µg/ml.
Experimental: Binding was analyzed by flow cytometry at antibody concentrations up to 20 μg/ml. Data points (n=2 replicates) are depicted as mean±SD.
as §1
The binding specificity was analyzed by flow cytometry using HEK293 transfectants engineered to overexpress human CLDN18.2 or the highly homologous protein human CLDN18.1.
Experiment [17] shares this target. The experiment is described as follows: flow cytometry on NCI-N87~CLDN18.2 cells, antibody up to 20 µg/ml.
Experimental: as §1
Experiment [18] shares this target. The experiment is described as follows: flow cytometry on NUGC-4 10cE8 cells (endogenous CLDN18.2), second assay.
Experiment [19] has the same target. The experiment is described as follows: flow cytometry on NUGC-4 10cF7-5 sort 3a cells (endogenous CLDN18.2), second assay.
The target is the same in experiment [20]. The experiment is described as follows: flow cytometry on NUGC-4 10cE8 cells (endogenous CLDN18.2), antibody up to 20 µg/ml.
Experimental: as §1
Binding properties were tested at different antibody concentrations in a range of 0.1 to 20 μg/ml (FIG. 4, Table 8).
For experiment [21] the target is unchanged. The experiment is described as follows: flow cytometry on NUGC-4 10cF7-5 sort 3a cells (endogenous CLDN18.2), antibody up to 20 µg/ml.
Experimental: as §1

From US20180117174A1 (GANYMED PHARMACEUTICALS, published 2018) come the findings set out here.

B1: chim mAB62 (antibody, V domains shown)
VH: QVQLQQSGAELMKPGASVKISCKATGYTFSSYWIEWVKQRPGHGLEWIGEILPGSGSTNYNEKFKGKATFTADTSSNTAYMQLSSLTSEDSAVYYCARYDYPWFAYWGQGTLVTVSA
VL: QIVLTQSPAIMSASPGEKVTITCSASSSVSYMHWFQQKPGTSPKLWIYSTSNLASGVPARFSGSGSGTSYSLTISRMEAEDAATYYCQQRSSYPPTFGGGTKLEIKR
Usually EC50 stands for the concentration that produces a half-maximal response. A high value points to a less potent agent. With B1, in experiment [1], the EC50 was determined as 32.3 µg/mL and the “Max. binding [MFI]” value is 4080 MFI. In experiment [2], the “EC50 normalized [%]” value turned out to be 5540% and the “Max. binding normalized [%]” value turned out to be 22%.

B2: mu mAB62 (antibody, mouse IgG2a, V domains shown)
VH: QVQLQQSGAELMKPGASVKISCKATGYTFSSYWIEWVKQRPGHGLEWIGEILPGSGSTNYNEKFKGKATFTADTSSNTAYMQLSSLTSEDSAVYYCARYDYPWFAYWGQGTLVTVSA
VL: QIVLTQSPAIMSASPGEKVTITCSASSSVSYMHWFQQKPGTSPKLWIYSTSNLASGVPARFSGSGSGTSYSLTISRMEAEDAATYYCQQRSSYPPTFGGGTKLEIK
notes: mouse IgG2a kappa
For B2, in experiment [3], the binding result was “no binding”. Further, in [4], a half-maximal response (EC50) required 27.9 µg/mL and the “Max. binding [MFI]” value turned out to be 2800 MFI. Moreover, in experiment [5], the “EC50 normalized [%]” value came out at 4280% and the “Max. binding normalized [%]” value amounted to 35%.

B3: chim mAB279 (antibody, V domains shown)
VH: QVQLQQSGAELARPGASVKLSCKASGYTFTDYYINWVKQRTGQGLEWIGEIYPGSGNTYYNEKFKGKATLTADKSSSTAYMQLSSLTSEDSAVYFCARSYGAFDYWGQGTTLTVSS
VL: DIVMTQSQKFMSTSVGDRVSITCKASQNVRTAVAWYQQKPGQSPKALIYLASNRHTGVPDRFTGSGSGTDFTLTISNVQSEDLADYFCLQHWNYPLTFGGGTKLEIKR
B3: in experiment [1], a half-maximal effect (EC50) was put at 60 µg/mL and the “Max. binding [MFI]” value was found to be 4390 MFI. Further, in [2], the “EC50 normalized [%]” value was determined as 10300% and the “Max. binding normalized [%]” value was 24%.

B4: mu mAB279 (antibody, mouse IgG2a, V domains shown)
VH: QVQLQQSGAELARPGASVKLSCKASGYTFTDYYINWVKQRTGQGLEWIGEIYPGSGNTYYNEKFKGKATLTADKSSSTAYMQLSSLTSEDSAVYFCARSYGAFDYWGQGTTLTVSS
VL: DIVMTQSQKFMSTSVGDRVSITCKASQNVRTAVAWYQQKPGQSPKALIYLASNRHTGVPDRFTGSGSGTDFTLTISNVQSEDLADYFCLQHWNYPLTFGGGTKLEIK
notes: mouse IgG2a kappa
For B4, the binding result in experiment [3] is on record as “no binding”. In experiment [4], a half-maximal effect (EC50) was put at 0.027 µg/mL and the “Max. binding [MFI]” value came to 118 MFI. In addition, in experiment [5], the “EC50 normalized [%]” value stood at 4% and the “Max. binding normalized [%]” value came to 1%.

B5: mu mAB362 (mouse IgG1) (antibody, V domains shown)
VH: QVQLQQPGAELVRPGASVKLSCKASGYTFTSYWINWVKQRPGQGLEWIGNIYPSDSYTNYNQKFKDKATLTVDKSSSTAYMQLSSPTSEDSAVYYCTRSWRGNSFDYWGQGTTLTVSS
VL: DIVMTQSPSSLTVTAGEKVTMSCKSSQSLLNSGNQKNYLTWYQQKPGQPPKLLIYWASTRESGVPDRFTGSGSGTDFTLTISSVQAEDLAVYYCQNDYSYPFTFGSGTKLEIK
notes: also called mu muAB362 (IgG1)
On to B5, for which, in [6], the “Cell viability EC50 [%] normalized to IMAB362, Fab-ZAP endocytosis assay” value was determined as 17%; the “Cell viability EC50 [ng/ml], Fab-ZAP endocytosis assay on HEK293~CLDN18.2 cells” value is 2.2 ng/mL; the “Max. viability reduction normalized [%], Fab-ZAP endocytosis assay” value is 66%. The same molecule gave an EC50 in experiment [7] of 0.654 µg/mL. Moreover, in experiment [8], the “EC50 normalized [%]” value turned out to be 53%. Further, in experiment [9], the EC50 was 4.29 µg/mL and the “Max. binding [MFI]” value turned out to be 5910 MFI. In [4], the EC50 was 2.24 µg/mL and the “Max. binding [MFI]” value is 8830 MFI. For the same molecule, in [10], the “EC50 normalized [%]” value was determined as 345% and the “Max. binding normalized [%]” value worked out at 111%. For the same molecule, in experiment [5], the “EC50 normalized [%]” value worked out at 343% and the “Max. binding normalized [%]” value was 111%.

B6: mu mAB362 (mouse IgG2a) (antibody, V domains shown)
VH: QVQLQQPGAELVRPGASVKLSCKASGYTFTSYWINWVKQRPGQGLEWIGNIYPSDSYTNYNQKFKDKATLTVDKSSSTAYMQLSSPTSEDSAVYYCTRSWRGNSFDYWGQGTTLTVSS
VL: DIVMTQSPSSLTVTAGEKVTMSCKSSQSLLNSGNQKNYLTWYQQKPGQPPKLLIYWASTRESGVPDRFTGSGSGTDFTLTISSVQAEDLAVYYCQNDYSYPFTFGSGTKLEIK
notes: Mouse IgG2a form of mu mAB362; also called mu muAB362 (IgG2a)
As to B6, in experiment [6], the “Cell viability EC50 [%] normalized to IMAB362, Fab-ZAP endocytosis assay” value amounted to 231%; the “Cell viability EC50 [ng/ml], Fab-ZAP endocytosis assay on HEK293~CLDN18.2 cells” value is roughly 30 ng/mL; the “Max. viability reduction normalized [%], Fab-ZAP endocytosis assay” value came out at 66%. In addition, in experiment [7], the EC50 stood at 4.29 µg/mL. Further, in [8], the “EC50 normalized [%]” value is 345%. Moreover, in experiment [9], the EC50 worked out at 0.654 µg/mL and the “Max. binding [MFI]” value came to 4880 MFI. Moreover, in [10], the “EC50 normalized [%]” value came out at 53%.

B7: mu mAB294 (antibody, V domains shown)
VH: QIQLVQSGPELKKPGETVKISCKASGYTFTNYGMNWVKQAPGKGLKWMGWINTNTGEPTYAEEFKGRFAFSLETSASTAYLQINNLKNEDTATYFCARLGFGNAMDYWGQGTSVTVSS
VL: DIVMTQSPSSLTVTAGEKVTMSCKSSQSLLNSGNQKNYLTWYQQKPGQPPKLLIYWASTRESGVPDRFTGSGSGTDFTLTISSVQAEDLAVYYCQNDYSYPLTFGAGTKLELK
notes: Tied by its number
For B7, in [3], the binding result was “no binding”. In experiment [4], a half-maximal effect (EC50) was put at 0.348 µg/mL and the “Max. binding [MFI]” value is 989 MFI. In addition, in experiment [5], the “EC50 normalized [%]” value worked out at 53% and the “Max. binding normalized [%]” value came out at 12%.

B8: IMAB362-DM4 (antibody, human IgG1, kappa, V domains shown)
VH: QVQLQQPGAELVRPGASVKLSCKASGYTFTSYWINWVKQRPGQGLEWIGNIYPSDSYTNYNQKFKDKATLTVDKSSSTAYMQLSSPTSEDSAVYYCTRSWRGNSFDYWGQGTTLTVSS
VL: DIVMTQSPSSLTVTAGEKVTMSCKSSQSLLNSGNQKNYLTWYQQKPGQPPKLLIYWASTRESGVPDRFTGSGSGTDFTLTISSVQAEDLAVYYCQNDYSYPFTFGSGTKLEIKR
modifications: DM4 coupled via SPDB linker to primary amines (lysine side chains or N-terminus) of the antibody; drug to antibody ratio 3.2; sites not stated
With B8, in experiment [11], the “EC50 [ng/ml] of reduction of cell viability (XTT, 72 h), BxPC-3~CLDN18.2 cells” value came out at 43 ng/mL. For the same molecule, in [11], the “EC50 [ng/ml] of reduction of cell viability (XTT, 72 h), BxPC-3~CLDN18.2 cells, second assay” value stood at 54 ng/mL. Besides, the “EC50 [ng/ml] of reduction of cell viability (XTT, 72 h), NCI-N87~CLDN18.2 cells” value in experiment [11] worked out at 75 ng/mL. In addition, in experiment [11], the “EC50 [ng/ml] of reduction of cell viability (XTT, 72 h), NUGC-4 10cE8 cells” value stood at 372 ng/mL. The “EC50 [ng/ml] of reduction of cell viability (XTT, 72 h), NUGC-4 10cF7-5 sort 3a cells” value in [11] is 155 ng/mL. In experiment [12], the “ADCC EC50 [ng/ml], NUGC-4 10cF7_5 sort3a p3151#10 cells, PBMC of Donor 1” value stood at 1150 ng/mL. The “ADCC EC50 [ng/ml], NUGC-4 10cF7_5 sort3a p3151#10 cells, PBMC of Donor 2” value in [12] came out at 217 ng/mL. For the same molecule, the “CDC EC50 [ng/ml], KATO-III FGF-BP#12 adM p3151#25 cells” value in [13] was found to be 6440 ng/mL. The “CDC EC50 [ng/ml], NUGC-4 10cF7_5 sort3a p3151#10 cells” value in [13] worked out at 15800 ng/mL. The EC50 in [14] stood at 0.425 µg/mL; in experiment [15], 0.507 µg/mL; in [16], 1.47 µg/mL; in experiment [17], 0.274 µg/mL; in [18] it was 7.49 µg/mL; in [19] it was 3.91 µg/mL. The EC50 in experiment [20] was 3.05 µg/mL; in [21], 2.6 µg/mL.

B9: chim mAB308 (antibody, V domains shown)
VH: QVQLQQSGPELVKPGASVKMSCKASGYTFTDYVISWVKQRTGQGLEWIGEIYPGSGSTYYNEKFKGKATLTADKSSNTAYMQLSSLTSEDSAVYFCARGVLLRAMDYWGQGTSVTVSS
VL: DIVMSQSPSSLAVSAGEKVTMSCKSSQSLLNSRTRKNYLAWYQQKPGQSPKLLIYWASTRESGVPDRFTGSGSGTDFTLTISSVQAEDLAVYYCKQSYNLYTFGGGTKLEIKR
B9: in experiment [1], the response was half-maximal at 18.9 µg/mL (EC50) and the “Max. binding [MFI]” value was 15000 MFI. Besides, in [2], the “EC50 normalized [%]” value came to 3240% and the “Max. binding normalized [%]” value was determined as 81%.
